Results on 10 molecules are retold here after publication PMC12746149, “Gluebodies Offer a Route To Improve Crystal Reliability and Diversity through Transferable Nanobody Mutations That Introduce Constitutive Close Contacts” (ACS Central Science, 2025).

Assay [1] has as its target MAGEB1 (UniProt P43366).
Assay [2] has as its target T1, truncated RECQL5 protein (11-453) (UniProt O94762).
T1 construct: RECQL5, residues 11-453, in pNIC-Bsa4; source: E. coli BL21-DE3-pRARE, purified (Ni-NTA, TEV cleavage, reverse Ni-NTA); not shown: His6, N-terminal, cleaved
Briefly: SEC; purified nanobody variants run with RECQL5 on size exclusion chromatography; comigration. The note with it: both partners purified. A general note: In gel filtration, larger molecules generally elute earlier.

The target of assay [3] is T1, truncated RECQL5 protein (11-453). Briefly: crystal structure; RECQL5 and nanobody mixed 1:1.5, complex isolated by SEC, Hampton Index screen; molecular replacement with PDB 5LB8 and chain A of 2X1O. The conditions noted are these: both partners purified.
In assay [4] the target is T2, MPP8 chromodomain (residues 53-117) (UniProt Q99549).
T2 construct: MPP8, the region corresponding to the chromodomain, residues 53-117, in a modified pET30 vector; not shown: His tag, N-terminal, cleaved
T2 sequence (Q99549 53-117): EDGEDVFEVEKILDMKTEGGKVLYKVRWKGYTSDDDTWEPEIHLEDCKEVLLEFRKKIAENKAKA
Briefly: crystal structure; MPP8 and 3A02 gluebody combined 1:1.2, complex isolated on Superdex 75 in 20 mM Hepes pH 7.5, 80 mM NaCl; vapor diffusion at 18 °C, 100 mM sodium acetate, 25% PEG 3000. The conditions noted are these: both partners purified.

The target in assay [5] is T3, MAGEB1 (UniProt P43366).
T3 construct: MAGEB1
T3 sequence (P43366 whole entry, the tested form may be a part): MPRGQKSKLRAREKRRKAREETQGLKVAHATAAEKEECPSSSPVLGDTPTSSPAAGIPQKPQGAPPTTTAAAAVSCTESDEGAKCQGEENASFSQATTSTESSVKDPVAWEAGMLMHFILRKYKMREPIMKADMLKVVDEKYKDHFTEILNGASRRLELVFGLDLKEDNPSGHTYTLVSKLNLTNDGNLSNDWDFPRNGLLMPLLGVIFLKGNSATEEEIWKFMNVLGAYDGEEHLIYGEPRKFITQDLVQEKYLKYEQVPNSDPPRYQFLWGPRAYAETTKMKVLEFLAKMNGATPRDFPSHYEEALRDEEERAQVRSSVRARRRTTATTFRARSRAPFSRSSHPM
Briefly: crystal structure; nanobody-target complex in two commercial coarse screens (192 conditions, two temperatures). The note with it: both partners purified.

Residue numbers refer to the chain shown, from its start. In names and notes the source's numbering stands. Read-outs that look alike come from different tables or passages of the source.

T1 sequence (O94762 11-453): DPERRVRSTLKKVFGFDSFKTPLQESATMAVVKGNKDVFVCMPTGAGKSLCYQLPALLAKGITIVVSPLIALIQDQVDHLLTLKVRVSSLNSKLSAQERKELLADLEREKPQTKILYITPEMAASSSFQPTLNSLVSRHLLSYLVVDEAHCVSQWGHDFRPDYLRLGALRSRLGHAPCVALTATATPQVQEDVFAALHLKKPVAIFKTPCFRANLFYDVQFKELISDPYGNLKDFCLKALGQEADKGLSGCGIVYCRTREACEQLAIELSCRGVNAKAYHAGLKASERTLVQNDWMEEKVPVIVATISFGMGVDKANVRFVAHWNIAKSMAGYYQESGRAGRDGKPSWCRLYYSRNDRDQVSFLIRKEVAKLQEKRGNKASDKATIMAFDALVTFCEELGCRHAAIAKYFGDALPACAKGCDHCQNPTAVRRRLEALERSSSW

B1: YNMAGEB1A-c001 (VHH)
VHH: QVQLQESGGGLVQAGGSLRLSCAASGFTFDDYAIGWFRQVPGKEREGVSCTSSSVGSTYYADSVKGRFTITSDNAKNTVYLQMNSLKPEDTAVYYCAADSYPYGSTWCRPPFFASWGQGTQVTVS
Turning to B1, the binding result in the assay with MAGEB1 [1] was “binds”.

B2: RECQL5 nanobody variant G1-001 (VHH)
VHH: QVQLQESGGGLVQAGGSLRLSCAASGSIFSINRMGWYRQAPGKQRELVAAITSGGSTNYAYSVKGRFTISRDNAKNTVYLQMNSLKPEDTAIYYCEAYGTYTLAPTGEGEYDDYWGQGTQVTVSA
notes: the mutated chain is in PDB 7ZML; numbers count on: IMGT numbering; six-residue tail left after TEV cleavage of the C-terminal 6xHis tag; vector pNIC-CTH0; source: E. coli KRX, purified (Ni-NTA, TEV cleavage, reverse Ni-NTA); not shown: His6, C-terminal, cleaved
Turning to B2, the binding result in assay [2] is reported as “binds”.

B3: RECQL5 nanobody variant G2-001 (VHH)
VHH: B2 VHH with S7N, L11C
notes: as the chain of m3 (G1-001, D69Y) with S7N:L12C; the mutated chain is in PDB 7ZMM; numbers count on: IMGT numbering; six-residue tail left after TEV cleavage of the C-terminal 6xHis tag; vector pNIC-CTH0; made by mutagenesis from G1-001; source: E. coli KRX, purified (Ni-NTA, TEV cleavage, reverse Ni-NTA); not shown: His6, C-terminal, cleaved
As for B3, the binding result in assay [3] was “binds”.

B4: 3A02 gluebody (Nb 3A02 nanobody with the Gluebody mutations S7N, Q14K and T125M) (VHH)
VHH: QVQLQENGGGLVKPGGSLRLSCAASGFTLSDYVMTWVRQAPGKGPEWVSRISAGGSTRYVDSVKGRFTISRDNAKNTMYLQMNSLKPEDTAVYYCARGSTLFSTNWDYRGQGTQVMVS
notes: Nb 3A02 with three stated mutations; the mutated chain is in PDB 9H77; also called Gb; not shown: His tag, N-terminal, cleaved
Consider B4, for which the binding result in assay [4] is recorded as “binds”.

B5: RECQL5 nanobody variant G4-043 (VHH)
VHH: QVQLVENGGGCVQATGSLRLSCAASGSIFSINRMTWYRQAPGKEREWVAAITSGGSTNYADSVKGRFTISRDSAKGTVYLQMNSLKPEDTAVYYCEAYGTYTLAPTGEGEYDDYWGQGTQVMVS
notes: the mutated chain is in PDB 7ZMS; numbers count on: IMGT numbering; G4 and G5 constructs were amplified from the synthesised DNA fragments with a different set of primers; source: E. coli KRX, purified (Ni-NTA, TEV cleavage, reverse Ni-NTA); not shown: MBP (inferred from the G3 scaffold), N-terminal, cleaved; His6 (inferred from the G3 scaffold), N-terminal, cleaved
As for B5, in assay [3], the binding result is “binds”.

B6: RECQL5 nanobody variant G2*-011 (VHH)
VHH: B5 VHH with T15G, R19K, D61Y, S73N, G76N, M122T
notes: the mutated chain is in PDB 7ZMR; source: E. coli KRX, purified (Ni-NTA, TEV cleavage, reverse Ni-NTA); not shown: MBP (from the vector pNIC-MBP2-LIC), N-terminal, cleaved; His6 (from the vector pNIC-MBP2-LIC), N-terminal, cleaved
With B6, the binding result in assay [3] was “binds”.

B7: RECQL5 nanobody variant G2*-006 (VHH)
VHH: B5 VHH with C11N, T15G, D61Y, S73N, G76N, M122T
notes: the mutated chain is in PDB 7ZMQ; source: E. coli KRX, purified (Ni-NTA, TEV cleavage, reverse Ni-NTA); not shown: MBP (from the vector pNIC-MBP2-LIC), N-terminal, cleaved; His6 (from the vector pNIC-MBP2-LIC), N-terminal, cleaved
In the case of B7, the binding result in assay [3] is “binds”.

B8: RECQL5 nanobody variant G3-048 (VHH)
VHH: B5 VHH with M122T
notes: the mutated chain is in PDB 7ZMN; numbers count on: IMGT numbering; synthesised DNA in pNIC-MBP2-LIC; no ENLYFQ tail; source: E. coli KRX, purified (Ni-NTA, TEV cleavage, reverse Ni-NTA); not shown: MBP, N-terminal, cleaved; His6, N-terminal, cleaved
Consider B8, for which the binding result in assay [3] is “binds”.

B9: RECQL5 nanobody variant G3-052 (VHH)
VHH: B5 VHH with T15G, Q81Y, M122T
notes: the mutated chain is in PDB 7ZMO; numbers count on: IMGT numbering; synthesised DNA in pNIC-MBP2-LIC; no ENLYFQ tail; source: E. coli KRX, purified (Ni-NTA, TEV cleavage, reverse Ni-NTA); not shown: MBP, N-terminal, cleaved; His6, N-terminal, cleaved
Regarding B9, in assay [3], the binding result is reported as “binds”.

B10: nanobody of the MAGEB1 complex (PDB 6R7T) (VHH)
VHH: QVQLQESGGGLVQPGGSLRLSCAASGFTFSTYAMSWFRQAPGKGLEWVASINSSGGGIQSYADSVKGRFTISRDNAKNTLYLQMNSLEPEDTAVYYCAAAAWRVGTYDYRGQGTQVTVSS
notes: naïve (not engineered) nanobody scaffold
For the molecule B10, the binding result in the assay with MAGEB1 [5] is reported as “binds”.
